We go through three molecules from patent US20130177579A1 (BIOALLIANCE C V, published 2013).

In experiment [1] the target is human transferrin receptor expressed by nonhematopoietic cancer cells (human) (UniProt P02786). Put plainly: FACS, NCI-N87 cells, 1/5X.
Experiment [2] shares this target. The experiment is described as follows: FACS, KLE cells, 1/5X. (In general: A flow cytometer gives signals particle by particle.)
For experiment [3] the target is unchanged. The experiment is described as follows: FACS, Panc02.03B cells, 1X.
Experiment [4] shares this target. Put plainly: FACS, WiDr cells, 1X.
Experiment [5] shares this target. Put plainly: FACS, NCI-N87 cells, 1X.
The target is the same in experiment [6]. The experiment is described as follows: FACS, SNU-16 cells, 1X.
The target is the same in experiment [7]. Put plainly: FACS, COLO205 cells, 1X.
For experiment [8] the target is unchanged. Put plainly: FACS, DLD-1 cells, 1X.
The target is the same in experiment [9]. Put plainly: FACS, SU.86.86 cells, 1X.
Experiment [10] has the same target. Put plainly: FACS, DU145 cells, 1/5X.
Experiment [11] has the same target. The experiment is described as follows: FACS, Panc-1 cells, 1X.
Experiment [12] shares this target. Put plainly: FACS, DU145 cells, 1X.
The target is the same in experiment [13]. Put plainly: FACS, SK-OV-3 cells, 1/5X.
Experiment [14] shares this target. The experiment is described as follows: FACS, Panc-1 cells, 1/5X.
Experiment [15] has the same target. The experiment is described as follows: FACS, SK-OV-3 cells, 1X.
Experiment [16] has the same target. Put plainly: FACS, A549 cells, 1/5X.
For experiment [17] the target is unchanged. The experiment is described as follows: FACS, A549 cells, 1X.
The target is the same in experiment [18]. Put plainly: FACS, H727 cells, 1/5X.
Experiment [19] shares this target. Put plainly: FACS, H727 cells, 1x.
For experiment [20] the target is unchanged. The experiment is described as follows: FACS, COLO205 cells, 1x.
Experiment [21] has the same target. Put plainly: FACS, MDA-MB-453 cells, 1x.
The target is the same in experiment [22]. Put plainly: FACS, DU145 cells, 1x.
Experiment [23] shares this target. The experiment is described as follows: FACS, SU.86.86 cells, 1x.
For experiment [24] the target is unchanged. The experiment is described as follows: FACS, SNU-16 cells, 1x.
Experiment [25] shares this target. Put plainly: FACS, WiDr cells, 1x.
The target is the same in experiment [26]. The experiment is described as follows: FACS, NCI-N87 cells, 1x.
For experiment [27] the target is unchanged. The experiment is described as follows: FACS, SK-OV-3 cells, 1x.
Experiment [28] shares this target. Put plainly: FACS, HEC-1-A cells, 1x.
The target is the same in experiment [29]. Put plainly: FACS, Kato III cells, 1x.
The target is the same in experiment [30]. The experiment is described as follows: FACS, DLD-1 cells, 1x.
Experiment [31] has the same target. The experiment is described as follows: FACS, OMC-3 cells, 1x.
For experiment [32] the target is unchanged. Put plainly: FACS, Panc02.03B cells, 1x.

Chain of human transferrin receptor expressed by nonhematopoietic cancer cells (human) (P02786 whole entry G142S): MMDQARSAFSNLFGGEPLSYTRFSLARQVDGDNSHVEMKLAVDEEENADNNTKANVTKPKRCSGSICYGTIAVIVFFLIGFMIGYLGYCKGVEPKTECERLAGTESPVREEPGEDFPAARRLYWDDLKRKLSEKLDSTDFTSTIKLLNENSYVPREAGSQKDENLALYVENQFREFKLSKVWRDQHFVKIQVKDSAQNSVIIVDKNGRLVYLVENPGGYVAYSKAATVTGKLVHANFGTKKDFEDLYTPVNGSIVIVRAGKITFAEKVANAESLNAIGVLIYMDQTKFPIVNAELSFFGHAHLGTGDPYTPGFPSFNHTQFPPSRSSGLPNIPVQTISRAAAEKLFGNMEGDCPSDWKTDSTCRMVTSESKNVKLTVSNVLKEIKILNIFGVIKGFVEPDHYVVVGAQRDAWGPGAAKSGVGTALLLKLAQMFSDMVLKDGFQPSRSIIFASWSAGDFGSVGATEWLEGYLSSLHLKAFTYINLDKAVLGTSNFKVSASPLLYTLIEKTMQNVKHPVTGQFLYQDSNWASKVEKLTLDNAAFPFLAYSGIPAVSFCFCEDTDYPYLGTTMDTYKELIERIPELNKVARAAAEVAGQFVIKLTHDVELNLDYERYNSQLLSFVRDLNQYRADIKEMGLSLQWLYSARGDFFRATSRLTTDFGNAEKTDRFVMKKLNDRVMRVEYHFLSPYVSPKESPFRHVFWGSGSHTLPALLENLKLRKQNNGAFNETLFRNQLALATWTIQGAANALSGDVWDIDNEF

B1: antibody 6-90 (antibody, mouse IgM, V domains shown)
VH: EVELQQFGIEMVKPGASVKISCKASGYIFTDYHMDWVRQSHGKSLEWIGDIDPKYDRVTYNQKFKGKASLTADKSSSTAYMELRSLTSEDTAVYYCAKTGAYGDYLAYWGQGTLVTVSA
VL: DLVMTQTPLSLPVSLGDQASISCRSSQSLVHSDGNTYFYWYLQKPGQSPKLLIYKVSNRFSGVPDRFSAGGSGTYFTLKISRVEAEDLGVYFCSQTTHFPPTFGGGTKLEIKR
notes: Mouse IgM, kappa from a hybridoma; tested as hybridoma culture supernatant
Take B1: the MFI in experiment [1] was determined as 5100 MFI; in [2], 556 MFI; in [3], 5910 MFI; in [4] it was 1420 MFI; in experiment [5], 5810 MFI; in experiment [6] it was 4750 MFI. For the same molecule, the results for the MFI in experiment [7], in experiment [8] and in [9] were 7090 MFI, 3760 MFI and 3950 MFI, respectively.

B2: antibody 55-31 (antibody, mouse IgM, V domains shown)
VH: QVQLQQPGAELVKPGTSVKLSCKASGYNFTSYWINWVKLRPGQGLEWIGDIYPGSGSTNYNEKFKSKATLTVDTSSSTAYMQLSSLASEDSALYYCARSAYRYDWFAYWGQGTLVTVSA
VL: DIQMTQSPASLSVSVGETVTITCRASENIYSNLAWYQQKQGKSPQLLVYAATNLADGVPSRFSGSGSGTQYSLKINSLQSEDFGSYYCQHFWGTPYTFGGGTKLEIKR
notes: as for B1
B2: the MFI in [2] turned out to be 87 MFI; in [3], 574 MFI; in experiment [10] it was 2280 MFI; in experiment [11] it was 773 MFI; in experiment [12] it was 2280 MFI; in experiment [13] it was 1970 MFI. Besides, the MFI was 503 MFI in experiment [14]; 2370 MFI in experiment [15]; 711 MFI in experiment [16]; 897 MFI in [17]; 219 MFI in experiment [8]; 154 MFI in [9].

B3: antibody 122-72 (antibody, V domains shown)
VH: EVQLVESGGGLVQPKGSLKLSCAASGFTFNTYAMNWVRQAPGKGLEWVARIRSKSNNYATYYADSVKDRFTISRDDSQSMLYLQMNNLKTEDTAMYYCVAYGSRNYWGQGTTLTVSS
VL: DIVMTQSPSSLTVTAGEKVTMSCKSSQSLLNSGNQKNYLTWYQQKPGQPPKLLIYWASTRESGVPDRFTGSGSGTDFTLTISSVQAEDLAVYYCQNDYSYPYTFGGGTKLEIKR
notes: Mouse IgM, kappa from a hybridoma; tested as hybridoma culture supernatant; Antibody 60-43 is said to have the same CDRs
Consider B3, for which the MFI in [18] was found to be 319 MFI; in experiment [1] it was 4300 MFI; in experiment [19], 623 MFI; in experiment [20] it was 6660 MFI; in [21], 53 MFI; in experiment [22] it was 51 MFI. The MFI in experiment [23] was found to be 5070 MFI; in experiment [10] it was 13 MFI; in experiment [24], 4150 MFI; in [25] it was 2480 MFI; in experiment [26] it was 3940 MFI; in experiment [27] it was 467 MFI. For the same molecule, the MFI was 72 MFI in experiment [28]; 613 MFI in experiment [29]; 381 MFI in [13]; 2500 MFI in experiment [30]; 3460 MFI in experiment [31]; 4690 MFI in experiment [32].
